Tests used:
[1] = biological target: T1, 6-histidine-tagged Tda2 (His-Tda2) (S. cerevisiae, UniProt P40045 2-126); assay: pull-down
T1 sequence: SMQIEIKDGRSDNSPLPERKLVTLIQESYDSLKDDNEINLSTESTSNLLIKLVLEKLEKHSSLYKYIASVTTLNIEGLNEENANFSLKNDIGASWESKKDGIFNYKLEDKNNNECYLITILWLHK

[2] = biological target: T2, 6-histidine-tagged actin capping protein (His-Cap1/2 heterodimer) (S. cerevisiae, UniProt P28495 1-268; P13517 1-287); assay: pull-down
T2 sequence (looked up) 1: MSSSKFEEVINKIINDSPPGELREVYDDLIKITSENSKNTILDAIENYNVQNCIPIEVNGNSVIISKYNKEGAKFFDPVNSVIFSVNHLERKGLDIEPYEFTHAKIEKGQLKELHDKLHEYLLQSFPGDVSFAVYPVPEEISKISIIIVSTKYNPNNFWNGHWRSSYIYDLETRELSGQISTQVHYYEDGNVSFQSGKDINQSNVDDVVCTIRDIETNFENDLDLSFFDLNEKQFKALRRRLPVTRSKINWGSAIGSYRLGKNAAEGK
T2 sequence (looked up) 2: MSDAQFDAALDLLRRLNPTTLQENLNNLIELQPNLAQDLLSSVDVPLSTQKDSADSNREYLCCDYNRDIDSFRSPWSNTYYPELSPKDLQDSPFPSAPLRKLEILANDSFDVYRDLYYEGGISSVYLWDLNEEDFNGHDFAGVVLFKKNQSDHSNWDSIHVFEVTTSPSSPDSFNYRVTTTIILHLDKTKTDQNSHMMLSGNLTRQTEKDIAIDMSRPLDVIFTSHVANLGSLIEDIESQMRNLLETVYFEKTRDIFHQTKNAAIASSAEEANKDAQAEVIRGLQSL

Q: Does KLPSKVASVEKIEEDDNTNKIEIANNWNVSSSFSKEKVLIDTTPGE (domain or fragment, S. cerevisiae, UniProt P40563 510-555, looked up) [GST-Aim21^510-555 F533A] bind [1]?
A: Result: binds

B1: Aim21^1-535-GST (domain or fragment, S. cerevisiae, UniProt P40563 1-535, looked up)
chain: MPSEVTPKVPERPSRRKTSELFPLSGSESGDIKANSEPPTPAGTPNVPTRRPILKAKTMTSFESGMDQESLPKVPLQRPVRRSTTEELNNVMNNTSKELEEIESLISKHNIHNVSRKKSPTSVEEGKVAAIHQNGQRSASDNKTSTNPSPLEKNEHEGAEGNESAISPSNLVNKSNNEVTEHSDSEDLTEKQKVHAALDNEAGDRSHFEEKLIPGDMKVQVDVSKDVEEGSLNALPPSGITESDDKAEKFTKHPESSLEELQKHQEQQEEKIFQNPTDEESTTSLNEKQEGKDNMEVNSQPQGPSDTETVIAATSSNVPSQIASEEENDVPVIPRSRPKKDFEAHVQKEELPNTQEKRVSEECDSTLISTEEESKIPKIPSERPKRRAPPPVPKKPSSRIAAFQEMLQKQQQQDLHNNGNSSATTASADIAKKHTDSSITSDTTKADFTSKLNGLFALPGMVNPGQLPPSLEKKLSSPDTESKLGPQDQSQAKTGPLGGTRRGRGPRGRKLPSKVASVEKIEEDDNTNKIEIFNN
Q: Does B1 bind [2]?
A: Result: binds
